Source: US20030007968A1, “Methods of inducing organ transplant tolerance and correcting hemoglobinopathies” (priority 2001, published 2003)

How the values were obtained:
[1] = target: T1, CD86Ig (Homo sapiens, UniProt P42081); experiment: BIAcore surface plasmon resonance equilibrium and kinetic binding to immobilized CD86Ig; details: for slower “off” rate than wild type CTLA4Ig: screening of COS culture media samples over immobilized CD86Ig; for koff / kon: immobilized CD86Ig, means±standard deviation from three experiments
T1 construct: Ig (immunoglobulin fusion partner)
T1 sequence (P42081 with tags, fused parts or gaps limits assumed): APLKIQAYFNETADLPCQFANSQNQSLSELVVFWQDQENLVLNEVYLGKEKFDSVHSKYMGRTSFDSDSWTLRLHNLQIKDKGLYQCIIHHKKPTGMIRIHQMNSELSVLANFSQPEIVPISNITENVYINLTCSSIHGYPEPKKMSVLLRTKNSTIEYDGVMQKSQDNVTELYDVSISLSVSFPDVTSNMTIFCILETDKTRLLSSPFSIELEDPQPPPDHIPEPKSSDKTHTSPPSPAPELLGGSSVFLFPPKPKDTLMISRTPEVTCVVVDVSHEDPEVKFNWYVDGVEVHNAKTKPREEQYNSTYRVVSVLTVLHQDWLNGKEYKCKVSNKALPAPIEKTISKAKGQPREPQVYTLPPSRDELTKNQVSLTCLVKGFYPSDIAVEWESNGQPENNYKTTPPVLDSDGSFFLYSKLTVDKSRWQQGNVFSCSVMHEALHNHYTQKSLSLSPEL
Excerpt: (§1) To synthesize and screen soluble CTLA4 mutant molecules with altered affinities for a B7 molecule (e.g. CD80, CD86), a two-step strategy was adopted. The experiments entailed first generating a library of mutations at a specific codon of an extracellular portion of CTLA4 and then screening these by BIAcore analysis to identify mutants with altered reactivity to B7. The Biacore assay system (Pharmacia, Piscataway, N.J.) uses a surface plasmon resonance detector system that essentially involves covalent binding of either CD80Ig or CD86Ig to a dextran-coated sensor chip which is located in a detector. The test molecule can then be injected into the chamber containing the sensor chip and the amount of complementary protein that binds can be assessed based on the change in molecular mass which is physically associated with the dextran-coated side of the sensor chip; the change in molecular mass can be measured by the detector system.
(§2) COS cells were transfected with individual miniprep purified plasmid DNA and propagated for several days. Three day conditioned culture media was applied to BIAcore biosensor chips (Pharmacia Biotech AB, Uppsala, Sweden) coated with soluble CD80Ig or CD86Ig. The specific binding and dissociation of mutant proteins was measured by surface plasmon resonance (O'Shannessy, D. J., et al., 1997 Anal. Biochem. 212:457-468). All experiments were run on BIAcore™ or BIAcore™ 2000 biosensors at 25° C. Ligands were immobilized on research grade NCM5 sensor chips (Pharmacia) using standard N-ethyl-N′-(dimethylaminopropyl) carbodiimidN-hydroxysuccinimide coupling (Johnsson, B., et al. (1991) Anal. Biochem. 198: 268-277; Khilko, S. N., et al.(1993) J. Biol. Chem 268:5425-15434).
(§3) BIAcore analysis conditions and equilibrium binding data analysis were performed as described in J. Greene et al. 1996 J. Biol. Chem. 271:26762-26771 and in U.S. patent application Ser. Nos. 09/579,927, and 60/214,065 which are herein incorporated by reference.
(§4) Senosorgram baselines were normalized to zero response units (RU) prior to analysis. Samples were run over mock-derivatized flow cells to determine background RU values due to bulk refractive index differences between solutions. Equilibrium dissociation constants (Kd) were calculated from plots of Req versus C, where Req is the steady-state response minus the response on a mock-derivatized chip, and C is the molar concentration of analyte. Binding curves were analyzed using commercial nonlinear curve-fitting software (Prism, GraphPAD Software).
(§5) Experimental data were first fit to a model for a single ligand binding to a single receptor (1-site model, i.e., a simple langmuir system, A+B AB), and equilibrium […] constants (Kd=[A]·[B]\[AB]) were calculated from the equation R=Rmax·C/(Kd+C). Subsequently, data were fit to the simplest two-site model of ligand binding (i.e., to a receptor having two non-interacting independent binding sites as described by the equation R=Rmax1·C\(Kd1+C)+Rmax2·C\(Kd2+C).
(§6) The goodness-of-fits of these two models were analyzed visually by comparison with experimental data and statistically by an F test of the sums-of-squares.
(§7) Association and disassociation analyses were performed using BIA evaluation 2.1 Software Pharmacia). Association rate constants kon were calculated in two ways, assuming both homogenous single-site interactions and parallel two-site interactions. For single-site interactions, kon values were calculated according to the equation Rt=Req(1−exp^−ks(t-t0), where Rt is a response at a given time, t; Req is the steady-state response; to is the time at the start of the injection; and ks=dR/dt=kon·Ckoff, where C is a concentration of analyte, calculated in terms of monomeric binding sites. For two-site interactions kon values were calculated according to the equation Rt=Req1(1−exp^−ks1(t-t0)+Req2(1−exp^ks2(t-t0). For each model, the values of kon were determined from the calculated slope (to about 70% maximal association) of plots of ks versus C. […]

[2] = with marrow rescue; cited from earlier work
[3] = tested on: C57BL/6 (B6) recipient mice; experiment: Congenic T cell-depleted bone marrow transplant after single busulfan dose, donor chimerism by flow cytometry; format: in vivo, mouse; details: busulfan 0, 10, 20, 30 mg/kg i.p. one day before 2×10^7 congenic T cell-depleted bone marrow cells
Method: Bone marrow preparation and treatment regimens.
Similar results were achieved when the busulfan was administered six or twelve hours before the administration of the T cell-depleted bone marrow cells.

[4] = target: T2, CD80Ig (Homo sapiens, UniProt P33681); experiment: BIAcore surface plasmon resonance equilibrium and kinetic binding to immobilized CD80Ig; details: for koff / kon: immobilized CD80Ig, means±standard deviation from three experiments
T2 construct: Ig (immunoglobulin fusion partner)
T2 sequence (P33681 with tags, fused parts or gaps limits assumed): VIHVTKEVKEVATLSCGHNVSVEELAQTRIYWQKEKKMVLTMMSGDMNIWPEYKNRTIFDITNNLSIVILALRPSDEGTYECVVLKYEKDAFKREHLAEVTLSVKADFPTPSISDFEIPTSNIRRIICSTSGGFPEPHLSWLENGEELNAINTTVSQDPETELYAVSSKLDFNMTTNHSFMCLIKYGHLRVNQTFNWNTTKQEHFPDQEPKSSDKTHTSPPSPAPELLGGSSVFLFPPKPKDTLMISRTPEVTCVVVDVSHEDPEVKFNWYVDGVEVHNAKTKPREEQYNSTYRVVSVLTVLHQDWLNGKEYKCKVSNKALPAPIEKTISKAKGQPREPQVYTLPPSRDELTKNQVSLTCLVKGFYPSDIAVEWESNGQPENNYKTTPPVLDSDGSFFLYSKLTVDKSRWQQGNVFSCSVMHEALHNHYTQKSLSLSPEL
Excerpt: as §1, §2, §3, §4, §5, §6, §7

[5] = target: T3, CD86Ig (UniProt P42081 24-247, limits assumed); experiment: SPR (BIAcore), CD86Ig immobilized, purified monomeric analyte
T3 construct: Immobilized on the BIAcore chip by amine coupling; also called soluble CD86Ig
T3 sequence (looked up): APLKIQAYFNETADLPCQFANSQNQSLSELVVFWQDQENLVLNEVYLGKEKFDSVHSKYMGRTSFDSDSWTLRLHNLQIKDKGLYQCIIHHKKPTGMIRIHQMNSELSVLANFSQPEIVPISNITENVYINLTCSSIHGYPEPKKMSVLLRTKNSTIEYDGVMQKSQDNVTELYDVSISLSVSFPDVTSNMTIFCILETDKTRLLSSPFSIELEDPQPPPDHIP

[6] = target: T3, CD86Ig; experiment: SPR, immobilized CD86Ig, monomer against dimer (L104EA29YIg)
[7] = target: T4, CD80Ig (UniProt P33681 35-242, limits assumed); experiment: SPR (BIAcore), equilibrium, CD80Ig immobilized, purified monomeric analyte
T4 construct: Immobilized on the BIAcore chip by amine coupling; also called soluble CD80Ig
T4 sequence (looked up): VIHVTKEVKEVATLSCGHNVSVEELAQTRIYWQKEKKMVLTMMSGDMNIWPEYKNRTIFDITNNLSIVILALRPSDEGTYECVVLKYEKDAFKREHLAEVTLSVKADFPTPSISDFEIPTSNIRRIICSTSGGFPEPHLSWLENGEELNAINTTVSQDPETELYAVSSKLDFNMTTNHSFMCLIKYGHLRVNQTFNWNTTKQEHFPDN

[8] = target: T3, CD86Ig; experiment: SPR (BIAcore), equilibrium, CD86Ig immobilized, purified monomeric analyte
[9] = target: T4, CD80Ig; experiment: SPR, immobilized CD80Ig
[10] = target: T4, CD80Ig; experiment: SPR (BIAcore), CD80Ig immobilized, purified monomeric analyte
[11] = target: T3, CD86Ig; experiment: SPR, immobilized CD86Ig

L104EA29TIg: double-site CTLA4 mutant Ig fusion, L104E and alanine +29 to threonine
slower “off” rate than wild type CTLA4Ig [1]: approximately 4 fold

L104EA29WIg: double-site CTLA4 mutant Ig fusion, L104E and alanine +29 to tryptophan
slower “off” rate than wild type CTLA4Ig [1]: approximately 4 fold

CS(=O)(=O)OCCCCOS(C)(=O)=O [busulfan]
LD50 [2]: 136 mg/kg | levels of donor hematopoietic chimerism versus dose [3]: directly proportional to the administered busulfan dose

CTLA4XC120S: single chain (monomeric) CTLA4 extracellular domain with cysteine 120 to serine mutation [reference compound]
koff [4]: 230 ± 10 (× 10^−3) S^−1 | kon [4]: 12.0 ± 1.0 (× 10^5) M^−1 S^−1 | koff [1]: 840 ± 55 (× 10^−3) S^−1 | kon [1]: 16.5 ± 0.5 (× 10^5) M^−1 S^−1

L104EA29LIg: double-site CTLA4 mutant Ig fusion, L104E and alanine +29 to leucine
slower “off” rate than wild type CTLA4Ig [1]: approximately 4 fold

B1: L104EA29YXC120S (receptor)
chain: MHVAQPAVVLASSRGIASFVCEYASPGKYTEVRVTVLRQADSQVTEVCAATYMMGNELTFLDDSICTGTSSGNQVNLTIQGLRAMDTGLYICKVELMYPPPYYEGIGNGTQIYVIDPEPSPDSD
notes: it was 'prepared in an identical manner' to CTLA4XC120S; also called monomeric L104EA29Y extracellular domain
koff [5]: 0.3 s⁻¹ | kon [5]: 1.14e+06 M⁻¹ s⁻¹ | fold lower binding affinity than the respective dimer [6]: 35 to 80 fold | Kd [7]: 85 nM | Kd [8]: 267 nM | fold higher affinity than CTLA4XC120S [9]: ~2 fold | fold slower rate of dissociation than CTLA4XC120S [9]: ~3 fold | koff [10]: 0.071 s⁻¹ | kon [10]: 830000 M⁻¹ s⁻¹ | fold higher affinity than CTLA4XC120S [11]: ~2 fold | fold slower rate of dissociation than CTLA4XC120S [11]: ~3 fold

B2: L104EA29YXC120S: single chain (monomeric) L104EA29Y extracellular domain with cysteine 120 to serine mutation (protein)
chain: B1 chain
koff [4]: 71 ± 5 (× 10^−3) S^−1 | kon [4]: 8.3 ± 0.26 (× 10^5) M^−1 S^−1 | higher affinity than CTLA4XC120S to CD80Ig ([4]; monomeric proteins): approximately 2 fold | slower rate of dissociation from CD80Ig than CTLA4XC120S ([4]; monomeric proteins): approximately 3 fold | koff [1]: 300 ± 10 (× 10^−3) S^−1 | kon [1]: 11.4 ± 1.6 (× 10^5) M^−1 S^−1 | higher affinity than CTLA4XC120S to CD86Ig ([1]; monomeric proteins): approximately 2 fold | slower rate of dissociation from CD86Ig than CTLA4XC120S ([1]; monomeric proteins): approximately 3 fold
